Measured values reported in patent publication US20220275067A1 (PROTHENA BIOSCIENCES, published 2022).
Where no end group is shown, it is not given here. The star is where a group is joined. Biotin = O=C1N[C@H]2[C@H](CS[C@H]2CCCCC(=O)*)N1

T1: biotinylated 15 amino acid tau peptide, residues 302-316 (human)
T1 peptide: Biotin-GGGSVQIVYKPVDLS

T2: biotinylated 15 amino acid tau peptide, residues 383-397 (human)
T2 peptide: Biotin-KAKTDHGAEIVYKSP


How the values were obtained:
[1] = molecular target: T3, human tau oligomers (human, UniProt P10636-6 2-383, limits assumed); experiment: cell-based or functional assay
T3 sequence (P10636 other isoform, or with tags, fused parts or gaps limits assumed): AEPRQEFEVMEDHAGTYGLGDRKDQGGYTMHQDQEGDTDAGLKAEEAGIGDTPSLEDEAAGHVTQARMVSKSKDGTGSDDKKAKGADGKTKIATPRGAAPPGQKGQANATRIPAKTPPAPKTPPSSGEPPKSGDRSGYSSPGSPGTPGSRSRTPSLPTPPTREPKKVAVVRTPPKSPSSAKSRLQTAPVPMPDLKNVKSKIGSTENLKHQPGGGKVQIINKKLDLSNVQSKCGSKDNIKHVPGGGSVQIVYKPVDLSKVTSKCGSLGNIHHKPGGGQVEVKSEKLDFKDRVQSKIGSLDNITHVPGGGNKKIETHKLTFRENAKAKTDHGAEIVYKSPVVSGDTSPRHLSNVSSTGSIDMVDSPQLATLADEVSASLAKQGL

[2] = molecular target: T3, human tau oligomers; experiment: cell-based or functional assay; remark: listed apart in the source
[3] = molecular target: T1, biotinylated 15 amino acid tau peptide, …; experiment: ELISA, biotinylated peptide on streptavidin plate
Protocol: (§1) Peptides contained 15 amino acids, with a 5 amino acid overlap. To enable binding to a streptavidin surface, peptides also contained an N-terminal biotin. Peptides were incubated on a streptavidin-coated plate, and the plate was blocked with 1% BSA in 1× PBS. After washing, antibodies were incubated on the plates for 1 hour at room temperature and washed. Plates were then coated with goat anti-mouse horseradish peroxidase (HRP), and washed. Plates were developed with OPD, and absorbance was read at 490 nm. […]

[4] = molecular target: T2, biotinylated 15 amino acid tau peptide, …; experiment: ELISA, biotinylated peptide on streptavidin plate
Protocol: as §1

[5] = molecular target: T4, recombinant human 4R0N tau (human, UniProt P10636 2-758); experiment: SPR Biacore; antibody captured by anti-mouse antibody; tau as analyte; global 1:1 fit
T4 construct: also called recombinant 4R0N human tau; P10636-6
T4 sequence (P10636 other isoform, or with tags, fused parts or gaps limits assumed): as above
Protocol: Surface plasmon resonance (SPR) analysis using Biacore was performed by immobilizing an anti-mouse (GE Lifesciences) antibody to a CM3 chip with EDC/NHS. Antibodies were then captured to the anti-mouse surface to equivalent levels. Regeneration was performed with 2 30 s injections of 10 mM Glycine pH 1.7. Various concentrations ranging from 500 to 0.122 nM, diluted in […] dilutions, of recombinant human 4R0N tau were flowed over the sensor for a 150s association phase and 300 s dissociation phase. Data was blank subtracted to both an irrelevant sensor not containing test antibody to account for irrelevant binding to the prepared sensor surface, and to the mobile phase vehicle to account for the dissociation of test antibody from the anti-mouse capture. Data was then analyzed with onboard evaluation software using a global 1:1 fit.

Binder	MTT viability of primary neurons with tau oligomers, antibody at 0.2 molar equivs [1]	MTT viability of primary neurons with tau oligomers, antibody at 0.33 molar equivs [1]	MTT viability of primary neurons with tau oligomers, antibody at 1 molar equivs [1]	MTT viability of primary neurons with tau oligomers, antibody at 3 molar equivs [1]	MTT viability of primary neurons with tau oligomers, antibody at 5 molar equivs [1]	LDH released by primary neurons with tau oligomers, antibody at 0.2 molar equivs [2]	LDH released by primary neurons with tau oligomers, antibody at 0.33 molar equivs [2]	LDH released by primary neurons with tau oligomers, antibody at 1 molar equivs [2]	LDH released by primary neurons with tau oligomers, antibody at 3 molar equivs [2]	LDH released by primary neurons with tau oligomers, antibody at 5 molar equivs [2]	binding result [3]	binding result [4]	Kd [5] [nM]	koff [5] [s⁻¹]	kon [5] [M⁻¹ s⁻¹]
mouse 10C12 antibody (antibody, mouse IgG2a, V domains shown, also called m10C12) VH: EVQLQQSGAELVRPGASVKLSCTASGFNIKDDYMNWVKQRPERGLEWIGWIDPENGDTEYASKFQGKATMTADTSSNTAYLQFSSLTSEDTAVYYCTTSNGWGQGTLVTVST VL: DIVMTQAAFSNPVTLGTSASISCRSSKSLLHSNGITYLYWYLQKPGQSPQLLIYQMSNLASGVPDRFSSSGSGTDFTLRISRVEAEDVGVYYCAQNLELPLTFGAGTKLELK	47.1 % of control	51.3 % of control	56.4 % of control	69.2 % of control	86.8 % of control	140 % of control	129 % of control	109 % of control	101 % of control	95.1 % of control	binds	binds	0.375	0.00245	6.53e+06
mouse 2D11 antibody (antibody, mouse IgG2a, V domains shown) VH: EVQLQQSGAELVRPGASVKLSCTASGFNIKDDYMNWVKQRPERGLEWIGWIDPENGDTEYASKFQGKATMTADTSSNTAYLQFSSLTSEDTAVYYCTTSNGWGQGTLVTVST VL: DIVMTQAAFSNPVTLGTSASISCRSSKSLLHSNGITYLYWYLQKPGQSPQLLIYQMSNLASGVPDRFSSSGSGTDFTLRISRVEAEDVGVYYCAQNLELPLTFGAGTKLELK	52.8 % of control	59.5 % of control	50.9 % of control	64 % of control	92.2 % of control	177 % of control	148 % of control	131 % of control	109 % of control	115 % of control	binds	binds	0.318	0.00221	6.93e+06
mouse 17C12 antibody (antibody, mouse IgG2a, V domains shown, also called m17C12) VH: KIQLQQSGAELVRPGASVKLSCTASAFNIKDDYMNWVKQRPERGLEWIGWIDPENGDTKYASKFQGKATMTADTSSNTAYLQLSSLTSEDTAVYYCTTSNGWGQGTLVTVSA VL: DVVMTQTPLTLSVTIGQPASISCTSSQSLLHSNRKTYLHWLLQRPGQSPKLLIYLVSKLESGVPDRFSGSGSGTDFTLKISRVEAEDLGVYYCLQTTHFPRTFGGGTKLEIK											binds	binds	0.482	0.00194	4.03e+06
mouse 9F5 antibody (antibody, mouse IgG1, V domains shown, also called m9F5; murine 9F5) VH: EVQLQQSGAELVRPGASVKLSCTASGFNIKDDYMNWVKQRPERGLEWIGWIDPENGDTEYASKFQGKATMTADTSSNTAYLQFSSLTSEDTAVYYCTTSNGWGQGTLVTVST VL: DIVMTQAAFSNPVTLGTSASISCRSSKSLLHSNGITYLYWYLQKPGQSPQLLIYQMSNLASGVPDRFSSSGSGTDFTLRISRVEAEDVGVYYCAQNLELPLTFGAGTKLELK	47.4 % of control	58 % of control	64.9 % of control	92.6 % of control	93.1 % of control	155 % of control	152 % of control	116 % of control	95.9 % of control	91.4 % of control	binds	binds	0.35	0.00224	6.39e+06
mouse 12C4 antibody (antibody, mouse IgG2a, V domains shown, also called m12C4) VH: EVQLQQSGAELVRPGASVKLSCTASGFNIKDDYMNWVRQRPERGLEWIGWIDPENGDTAYASKFQGKATMTADTSSNTAYLQFSSLTSEDSAVYYCTTSNGWGQGTLVTVSA VL: DIVMTQAAFSNPVTLGTSASISCRSSKSLLHSNGITYLYWYLQKPGQSPQLLIYQMSNLASGVPDRFSSSGSGTDFTLRISRVEAEDVGVYYCAQNLELPLTFGAGTKLELK	48.6 % of control	53.2 % of control	62.3 % of control	78.7 % of control	81.1 % of control	153 % of control	152 % of control	124 % of control	110 % of control	108 % of control	binds	binds	0.363	0.00206	5.69e+06
